The target of test [1] is His-tagged human BCMA (ACRO Biosystems, Cat. #: BCA-H522y) (human). Kind of test: SPR (BIAcore T200) affinity ranking; crude sdAb captured via tag, antigen at 100 nM.
The target in test [2] is Fc-fused Cynomolgus BCMA (ACRO Biosystems, Cat. #: BCA-C5253) (cynomolgus). The test is described as above.

His-tagged human BCMA (ACRO Biosystems, Cat. #: BCA-H522y) (human), sequence (Q02223 1-54): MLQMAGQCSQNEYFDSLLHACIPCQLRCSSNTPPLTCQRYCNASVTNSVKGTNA

B1: anti-BCMA sdAb BCMA11 (VHH, part only)
VHH: QVQLVESGGGVVQPGGSLRLSCAASGFAFSNYAMTWGRQAPGQRLEWVSTIDSGGGSTTYSDSVKGRFTISRDNAKNTLYLQLNNLKSEDTAVYYCSENVDCNGDYCYRANYWGQGTQVTVSS
modifications: affinity tag
Usually Kd stands for the free concentration of one partner at which half of the binding sites on the other are occupied at equilibrium, for simple one-to-one binding. As a reminder, the koff is the rate constant with which the complex falls apart. High values mean fast dissociation, low ones slow dissociation. Usually kon stands for the rate constant with which the complex forms. A low value points to slow association. Take B1: in test [1], the Kd was found to be 53 nM, the koff turned out to be 0.009 s⁻¹ and the kon came out at 170000 M⁻¹ s⁻¹. In test [2], this molecule returned a Kd of 16 nM, a koff of 0.007 s⁻¹ and a kon of 450000 M⁻¹ s⁻¹.

B2: anti-BCMA sdAb BCMA7 (VHH, part only)
VHH: QVHLMESGGGSVQSGGSLRLSCAASGYTYSSYCMAWFRQAPGKEREGVAAIASDGSTYYTDSVKGRFTISQDNAKNTLYLQMNSLKPEDTAMYYCGADPVGCSWPDYWGQGTQVTVSS
modifications: affinity tag
As for B2, in test [1], the Kd was 46 nM, the off-rate constant (koff) came out at 0.1 s⁻¹ and the kon was 2.3e+06 M⁻¹ s⁻¹. In addition, in test [2], the Kd amounted to 43 nM, the koff was 0.056 s⁻¹ and the kon was 1.3e+06 M⁻¹ s⁻¹.

B3: anti-BCMA sdAb BCMA9 (VHH, part only)
VHH: QVQLVESGGGSVQAGGSLRLSCKSSGAPYSSNCMAWFRQTPGKGREGVATIDLASHDTYYADSVKGRFTISRDNAKNTMYLQMNSLKPEDTAMYYCAATSWWPCTTFNGGYANWGQGTQVTVSS
modifications: affinity tag
As to B3, in test [1], the Kd was determined as 8.5 nM, the koff was found to be 0.42 s⁻¹ and the kon was 5e+07 M⁻¹ s⁻¹. Besides, in test [2], the Kd was determined as 2.4 nM, the dissociation rate constant (koff) is 0.0015 s⁻¹ and the association rate constant (kon) came to 650000 M⁻¹ s⁻¹.

B4: anti-BCMA sdAb BCMA12 (VHH, part only)
VHH: QVHLVESGGGSVQAGGSLRLSCKSSGATYSSNCMAWFRQTPGKEREGVATIDLASHGTYYADSVKGRFTISRDNAKNTMYLQMSGLRPEDTALYYCAATSWWPCTTFNGGYASWGQGTQVTVSS
modifications: affinity tag
On to B4, for which, in test [1], the Kd was 23 nM, the koff was 0.025 s⁻¹ and the kon was 1.1e+06 M⁻¹ s⁻¹. For the same molecule, in test [2], the Kd was 4.3 nM, the koff was 0.004 s⁻¹ and the kon turned out to be 940000 M⁻¹ s⁻¹.

B5: anti-BCMA sdAb BCMA1 (VHH, part only)
VHH: QVQLVESGGGSVQAGGSLRLSCKASGAIYDTNCMAWFRQTPGKEREGVATIDLGNPITYYADSVKGRFTISRDNAKNTMYLQMNSLEPEDTAMYYCAATSWWPCTTFNAGYANWGQGTQVTVSS
modifications: affinity tag
Take B5: in test [1], the Kd is 10 nM, the koff is 0.29 s⁻¹ and the kon was found to be 2.9e+07 M⁻¹ s⁻¹. Also, in test [2], the Kd was 0.64 nM, the koff was 0.00043 s⁻¹ and the kon is 670000 M⁻¹ s⁻¹.

B6: anti-BCMA sdAb BCMA13 (VHH, part only)
VHH: QVHLVESGGGSVQAGGSLRLSCKASGAIYDTNCMAWFRQTPGKEREGVATIDLGNPITYYADSVKGRFTISRDNAKNTMYLQMNSLKPEDTAMYYCAATSWWPCPANNVGYANWGQGTQVTVSS
modifications: affinity tag
In test [1], B6 showed a Kd of 77 nM, a koff of 0.053 s⁻¹ and a kon of 690000 M⁻¹ s⁻¹. In test [2], the Kd turned out to be 13 nM, the koff is 0.018 s⁻¹ and the kon was found to be 1.4e+06 M⁻¹ s⁻¹.

B7: anti-BCMA sdAb BCMA10 (VHH, part only)
VHH: QVQLAESGGGLVQPGGSLRLSCAGSGFTFSSYDMNWVRQAPGKGLERVSTTFNGDDGTNYADSVLGRFTASRDKAKNTLYLQMNSLKTEDTAVYYCAAAVPGVDWYDTTRYKYWGQGTQVTVSS
modifications: affinity tag
For the molecule B7, in test [1], the Kd came out at 47 nM, the koff is 0.13 s⁻¹ and the kon was found to be 2.8e+06 M⁻¹ s⁻¹. In test [2], the Kd amounted to 50 nM, the koff was 0.04 s⁻¹ and the kon came to 790000 M⁻¹ s⁻¹.

B8: anti-BCMA sdAb BCMA8 (VHH, part only)
VHH: QVQLVESGGGSVQAGGSLRLSCAASGGTRSWNYMAWFRQAPGKEREDVAIIDNVGSTRYADSVKGRFTISQDTAQNTLYLQMNSLKPEDTAMYYCAARVSWCEDPPCGFDYWGQGTQVTVSS
modifications: affinity tag
In test [1], B8 yielded a Kd of 48 nM, a koff of 0.37 s⁻¹ and a kon of 7.8e+06 M⁻¹ s⁻¹. Also, in test [2], the Kd amounted to 13 nM and the koff was 560 s⁻¹.

B9: anti-BCMA sdAb BCMA6 (VHH, part only)
VHH: QMQLVESGGGSVQAGGSLRLSCTASGYTFDDSAMGWYRQAPGNECELVSSISSDGSTYYSDSVKGRFTISQDNAKNTMYLQMNSLKPEDTAVYSCAASSGEDGGSWSTPCHFFGYWGQGTQVTVSS
modifications: affinity tag
In test [1], B9 showed a dissociation constant (Kd) of 4.9 nM, an off-rate constant (koff) of 0.026 s⁻¹ and an association rate constant (kon) of 5.4e+06 M⁻¹ s⁻¹. In addition, in test [2], the dissociation constant (Kd) amounted to 0.83 nM, the koff amounted to 0.00091 s⁻¹ and the kon is 1.1e+06 M⁻¹ s⁻¹.

For the origin of these results see US20220265709A1.
